Measured values as given in patent US12533321B2, “Polypeptide formulations for oral delivery” (Bhami's Research Laboratory, Pvt. Ltd., priority 2022, dated 2026).

What was measured:
Format in all cases: in vivo, Minipigs
[1] = Pharmacokinetics of adalimumab in albumin crystal capsule (Vitamin E) vs IV, plasma adalimumab by ELISA; design: Mean adalimumab levels: unit not given here; conditions: 12 mg; for Mean adalimumab levels: plasma, Pigs
Text: The microparticle of albumin crystals containing adalimumab was then lyophilized after washing with cold isopropanol. […] The capsule was then closed.
(§1) Pigs in the oral treatment group was either fasted overnight or fed prior to the test sample administration. […] The time of dosage of each animal was noted. […] An antibody, anti-adalimumab was pre-coated onto a 96-well plate. […] The intensity of the yellow color is proportional to the adalimumab amount bound on the plate.

[2] = Pharmacokinetics of adalimumab in albumin crystal sugar truffle shell vs IV, plasma adalimumab by ELISA; design: Mean adalimumab levels: unit not given here; conditions: 12 mg; for Mean adalimumab levels: plasma, Pigs
Text: The microparticle of albumin crystals containing adalimumab was then lyophilized after washing with cold isopropanol.
as §1

[3] = Pharmacokinetics of hGH in albumin crystal capsule (Vitamin E) vs IV, plasma hGH by ELISA
Text: The microparticle of albumin crystals containing hGH was then lyophilized after washing with cold isopropanol. […] The capsule was then closed.
as §1, with “anti-hGH” for “anti-adalimumab”, “hGH” for “adalimumab”

[4] = Pharmacokinetics of hGH in albumin crystal sugar truffle shell vs IV, plasma hGH by ELISA; conditions: 0.33 mg; for Mean hGH levels: plasma, Pigs
Text: The microparticle of albumin crystals containing hGH was then lyophilized after washing with cold isopropanol.
as §1, with “anti-hGH” for “anti-adalimumab”, “hGH” for “adalimumab”

## adalimumab
[1]; Minipigs
  AUC 0-inf_obs: 2387.704908 µg·h/mL
  AUC 0-inf_pred: 2433.025437 µg·h/mL
  AUC t-inf_obs: 1464.822434 µg·h/mL
  AUC t-inf_pred: 1510.142963 µg·h/mL
  AUC(0-t): 922.8824739 µg·h/mL
  AUMC 0-inf_obs: 476541890.8 ng/ml * h^2
  AUMC 0-inf_pred: 490022798.4 ng/ml * h^2
  AUMC 0-t: 40820243.03 ng/ml * h^2
  AUMC 0-t/0-inf_obs: 0.08566
  AUMC 0-t/0-inf_pred: 0.0833
  AUMC t-inf_obs: 435721647.8 ng/ml * h^2
  AUMC t-inf_pred: 449202555.4 ng/ml * h^2
  C0: 8311 ng/mL
  Cl_obs: 5.026E−06 (mg)/(ng/ml)/h
  Cl_pred: 4.932E−06 (mg)/(ng/ml)/h
  Clast_obs: 7271 ng/mL
  Clast_pred: 7496 ng/mL
  Cmax: 12110.42857 ng/mL
  Lambda_z: 0.00496 h⁻¹
  MRT 0-inf_obs: 199.6 h
  MRT 0-inf_pred: 201.4 h
  MRT 0-t: 44.23 h
  Tlast: 96 h
  Tmax: 2 h
  Vss_obs: 0.001003 (mg)/(ng/ml)
  Vss_pred: 0.0009934 (mg)/(ng/ml)
  Vz_obs: 0.001012 (mg)/(ng/ml)
  Vz_pred: 0.0009936 (mg)/(ng/ml)
  t½: 139.6393 h
[1]; 0 hrs
  Mean adalimumab levels: 8311.04
[1]; 0.08 hrs
  Mean adalimumab levels: 11638.36
[1]; 0.5 hrs
  Mean adalimumab levels: 11171.29
[1]; 1 hrs
  Mean adalimumab levels: 11637.57
[1]; 2 hrs
  Mean adalimumab levels: 11541.29
[1]; 4 hrs
  Mean adalimumab levels: 12110.43
[1]; 8 hrs
  Mean adalimumab levels: 11914.71
[1]; 24 hrs
  Mean adalimumab levels: 11552.57
[1]; 48 hrs
  Mean adalimumab levels: 10162.00
[1]; 72 hrs
  Mean adalimumab levels: 9803.00
[1]; 96 hrs
  Mean adalimumab levels: 8772.00
[2]; Minipigs
  AUC 0-inf_obs: 2387.704908 µg·h/mL
  AUC 0-inf_pred: 2433.025437 µg·h/mL
  AUC t-inf_obs: 1464.822434 µg·h/mL
  AUC t-inf_pred: 1510.142963 µg·h/mL
  AUC(0-t): 922.8824739 µg·h/mL
  AUMC 0-inf_obs: 476541890.8 ng/ml * h^2
  AUMC 0-inf_pred: 490022798.4 ng/ml * h^2
  AUMC 0-t: 40820243.03 ng/ml * h^2
  AUMC 0-t/0-inf_obs: 0.08566
  AUMC 0-t/0-inf_pred: 0.0833
  AUMC t-inf_obs: 435721647.8 ng/ml * h^2
  AUMC t-inf_pred: 449202555.4 ng/ml * h^2
  C0: 8311 ng/mL
  Cl_obs: 5.026E−06 (mg)/(ng/ml)/h
  Cl_pred: 4.932E−06 (mg)/(ng/ml)/h
  Clast_obs: 7271 ng/mL
  Clast_pred: 7496 ng/mL
  Cmax: 12110.42857 ng/mL
  Lambda_z: 0.00496 h⁻¹
  MRT 0-inf_obs: 199.6 h
  MRT 0-inf_pred: 201.4 h
  MRT 0-t: 44.23 h
  Tlast: 96 h
  Tmax: 2 h
  Vss_obs: 0.001003 (mg)/(ng/ml)
  Vss_pred: 0.0009934 (mg)/(ng/ml)
  Vz_obs: 0.001012 (mg)/(ng/ml)
  Vz_pred: 0.0009936 (mg)/(ng/ml)
  t½: 139.6393 h
[2]; 0 hrs
  Mean adalimumab levels: 8311.04
[2]; 0.08 hrs
  Mean adalimumab levels: 11638.36
[2]; 0.5 hrs
  Mean adalimumab levels: 11171.29
[2]; 1 hrs
  Mean adalimumab levels: 11637.57
[2]; 2 hrs
  Mean adalimumab levels: 11541.29
[2]; 4 hrs
  Mean adalimumab levels: 12110.43
[2]; 8 hrs
  Mean adalimumab levels: 11914.71
[2]; 24 hrs
  Mean adalimumab levels: 11552.57
[2]; 48 hrs
  Mean adalimumab levels: 10162.00
[2]; 72 hrs
  Mean adalimumab levels: 9803.00
[2]; 96 hrs
  Mean adalimumab levels: 8772.00

## hGH: human growth hormone (human recombinant), given IV
[3]; 0 h
  Mean hGH levels: 18144.54 ± 1619.64 pg/mL
[3]; 0.33 mg, Minipigs
  AUC 0-inf_obs: 0.160057765 µg·h/mL
  AUC 0-inf_pred: 0.158135382 µg·h/mL
  AUC t-inf_obs: 0.005998634 µg·h/mL
  AUC t-inf_pred: 0.004076251 µg·h/mL
  AUC(0-t): 0.154059131 µg·h/mL
  AUMC 0-inf_obs: 1696005.242 pg/ml * h^2
  AUMC 0-inf_pred: 1578826.575 pg/ml * h^2
  AUMC 0-t: 1330359.118 pg/ml * h^2
  AUMC 0-t/0-inf_obs: 0.784
  AUMC 0-t/0-inf_pred: 0.843
  AUMC t-inf_obs: 365646.123 pg/ml * h^2
  AUMC t-inf_pred: 248467.457 pg/ml * h^2
  C0: 18.14454 ng/mL
  Cl_obs: 0.000 (mg)/(pg/ml)/h
  Clast_obs: 0.46304 ng/mL
  Clast_pred: 0.31465 ng/mL
  Cmax: 22.5132 ng/mL
  Lambda_z: 0.077 h⁻¹
  MRT 0-inf_obs: 10.596 h
  MRT 0-inf_pred: 9.984 h
  MRT 0-t: 8.635 h
  Tlast: 48.000 h
  Tmax: 0.500 h
  Vss_obs: 0.000 (mg)/(pg/ml)
  Vz_obs: 0.000 (mg)/(pg/ml)
  t½: 8.980 h
[3]; 0.08 h
  Mean hGH levels: 20014.87 ± 620.32 pg/mL
[3]; 0.5 h
  Mean hGH levels: 22513.2 ± 562.85 pg/mL
[3]; 1 h
  Mean hGH levels: 22130.7 ± 728.54 pg/mL
[3]; 4 h
  Mean hGH levels: 14910.13 ± 2908.87 pg/mL
[3]; 8 h
  Mean hGH levels: 1159.19 ± 226.15 pg/mL
[3]; 24 h
  Mean hGH levels: 1495.55 ± 291.77 pg/mL
[3]; 48 h
  Mean hGH levels: 463.04 ± 90.34 pg/mL
[4]; Minipigs
  AUC 0-inf_obs: 0.160057765 µg·h/mL
  AUC 0-inf_pred: 0.158135382 µg·h/mL
  AUC t-inf_obs: 0.005998634 µg·h/mL
  AUC t-inf_pred: 0.004076251 µg·h/mL
  AUC(0-t): 0.154059131 µg·h/mL
  AUMC 0-inf_obs: 1696005.242 pg/ml * h^2
  AUMC 0-inf_pred: 1578826.575 pg/ml * h^2
  AUMC 0-t: 1330359.118 pg/ml * h^2
  AUMC 0-t/0-inf_obs: 0.784
  AUMC 0-t/0-inf_pred: 0.843
  AUMC t-inf_obs: 365646.123 pg/ml * h^2
  AUMC t-inf_pred: 248467.457 pg/ml * h^2
  C0: 18.14454 ng/mL
  Cl_obs: 0.000 (mg)/(pg/ml)/h
  Clast_obs: 0.46304 ng/mL
  Clast_pred: 0.31465 ng/mL
  Cmax: 22.5132 ng/mL
  Lambda_z: 0.077 h⁻¹
  MRT 0-inf_obs: 10.596 h
  MRT 0-inf_pred: 9.984 h
  MRT 0-t: 8.635 h
  Tlast: 48.000 h
  Tmax: 0.500 h
  Vss_obs: 0.000 (mg)/(pg/ml)
  Vz_obs: 0.000 (mg)/(pg/ml)
  t½: 8.980 h
[4]; 0 hrs
  Mean hGH levels: 18144.54 ± 1619.64 pg/mL
[4]; 0.08 hrs
  Mean hGH levels: 20014.87 ± 620.32 pg/mL
[4]; 0.5 hrs
  Mean hGH levels: 22513.2 ± 562.85 pg/mL
[4]; 1 hrs
  Mean hGH levels: 22130.7 ± 728.54 pg/mL
[4]; 4 hrs
  Mean hGH levels: 14910.13 ± 2908.87 pg/mL
[4]; 8 hrs
  Mean hGH levels: 1159.19 ± 226.15 pg/mL
[4]; 24 hrs
  Mean hGH levels: 1495.55 ± 291.77 pg/mL
[4]; 48 hrs
  Mean hGH levels: 463.04 ± 90.34 pg/mL
